In US20250161473A1 (GAN AND LEE PHARMACEUTICALS, published 2025):
Blank lines part the entries; values can stand above or below the binder they belong to.

How the values were obtained:
[1] = target: T1, human HER3-His antigen (human, UniProt P21860 20-643); assay: SPR (Biacore 8K), antibody captured on Protein A chip, HER3-His at 0.625-40 nM as analyte
T1 construct: not shown: His tag
Method: (§1) The binding ability of naked antibody, HER3-ADC-19, HER3-ADC-20, HER3-ADC-21 to human HER3-His antigen was determined at 7 different concentrations (0.625-40 nM) using protein A biosensor chip.

[2] = target: T1, human HER3-His antigen; assay: SPR (Biacore 8K), ADC captured on Protein A chip, HER3-His at 0.625-40 nM as analyte
Method: as §1

[3] = target: T2, TROP-2-his (UniProt P09758 27-274); assay: SPR (Biacore), antibody captured on Protein A chip, TROP-2-his flowed over, 1:1 Langmuir fit
T2 construct: also called antigen TROP-2-his; not shown: his tag
T2 sequence (looked up): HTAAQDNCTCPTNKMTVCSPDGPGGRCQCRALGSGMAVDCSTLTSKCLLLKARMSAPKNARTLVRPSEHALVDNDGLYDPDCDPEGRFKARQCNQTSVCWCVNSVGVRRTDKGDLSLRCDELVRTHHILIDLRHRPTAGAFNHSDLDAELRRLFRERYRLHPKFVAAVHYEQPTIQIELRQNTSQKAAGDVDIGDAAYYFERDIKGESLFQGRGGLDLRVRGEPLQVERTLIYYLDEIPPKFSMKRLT
From the text: (§2) In this test example, the affinity of the TROP-2 antibody and the TROP-2-ADC compound obtained according to the above examples to TROP-2 is detected by means of capturing antibody.
(§3) Use the Sensor Chip Protein A biosensor chip (Cytiva) to capture the antibody (TROP-2 antibody or TROP-2-ADC compound), then flow through the antigen TROP-2-his on the surface of the chip, and use the Biacore K8 instrument (Cytiva) Real-time detection of reaction signals to obtain association and dissociation curves. After the dissociation of each experiment cycle, the chip was washed and regenerated with regeneration buffer. After the experiment, GE Biacore K8 Evaluation version 3.0 software was used to fit the data with the (1:1) Langmuir model to obtain the affinity value.

[4] = target: T2, TROP-2-his; assay: SPR (Biacore), ADC captured on Protein A chip, TROP-2-his flowed over, 1:1 Langmuir fit
From the text: as §2, §3

- Kd [1]: 1.41 nM
- koff [1]: 0.000363 s⁻¹
- kon [1]: 257000 M⁻¹ s⁻¹
B1: anti-human HER3 monoclonal antibody (antibody, human IgG1, kappa, V domains shown)
VH: QVQLQQWGAGLLKPSETLSLTCAVYGGSFSGYYWSWIRQPPGKGLEWIGEINHSGSTNYNPSLKSRVTISVETSKNQFSLKLSSVTAADTAVYYCARDKWTWYFDLWGRGTLVTVSS
VL: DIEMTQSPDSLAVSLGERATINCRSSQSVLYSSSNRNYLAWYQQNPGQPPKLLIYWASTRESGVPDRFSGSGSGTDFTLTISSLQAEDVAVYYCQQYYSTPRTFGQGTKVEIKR
notes: also called Naked antibody; HER3 antibody

- Kd [2]: 2.08 nM
- koff [2]: 0.000451 s⁻¹
- kon [2]: 217000 M⁻¹ s⁻¹
B2: HER3-ADC-21 (antibody, human IgG1, kappa, V domains shown)
VH: B1 VH
VL: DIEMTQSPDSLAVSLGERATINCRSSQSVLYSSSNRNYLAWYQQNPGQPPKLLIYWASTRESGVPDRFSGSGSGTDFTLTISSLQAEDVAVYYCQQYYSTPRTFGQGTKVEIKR
modifications: drug-linker compound 68 coupled to cysteines of the reduced interchain disulfide bonds; positions not given; drug-linker compound 68 (maleimide linker, exatecan derivative) coupled to cysteines of the reduced interchain disulfide bonds; positions not given; DAR 8.00 for the whole antibody

- Kd [3]: 0.318 nM
B3: anti-human TROP-2 monoclonal antibody (anti-hRS7 antibody) (antibody, human IgG1, kappa, V domains shown)
VH: QVQLQQSGSELKKPGASVKVSCKASGYTFTNYGMNWVKQAPGQGLKWMGWINTYTGEPTYTDDFKGRFAFSLDTSVSTAYLQISSLKADDTAVYFCARGGFGSSYWYFDVWGQGSLVTVSS
VL: DIQLTQSPSSLSASVGDRVSITCKASQDVSIAVAWYQQKPGKAPKLLIYSASYRYTGVPDRFSGSGSGTDFTLTISSLQPEDFAVYYCQQHYITPLTFGAGTKVEIKR
notes: also called Naked antibody (anti-TROP-2 monoclonal antibody); TROP-2 antibody

- Kd [4]: 0.275 nM
B4: TROP-2-ADC-21 (antibody, human IgG1, kappa, V domains shown)
VH: B3 VH
VL: B3 VL
modifications: drug-linker compound 68 coupled to cysteines of the reduced interchain disulfide bonds; positions not given; drug-linker compound 68 (maleimide linker, exatecan derivative) coupled to cysteines of the reduced interchain disulfide bonds; positions not given; DAR 4.78 for the whole antibody

- Kd [4]: 0.276 nM
B5: TROP-2-ADC-3 (antibody, human IgG1, kappa, V domains shown)
VH: B3 VH
VL: B3 VL
modifications: drug-linker compound 50 coupled to cysteines of the reduced interchain disulfide bonds; positions not given; drug-linker compound 50 (maleimide linker, exatecan derivative) coupled to cysteines of the reduced interchain disulfide bonds; positions not given; DAR 14.74 for the whole antibody

- Kd [4]: 0.293 nM
B6: TROP-2-ADC-4 (antibody, human IgG1, kappa, V domains shown)
VH: B3 VH
VL: B3 VL
modifications: drug-linker compound 51 coupled to cysteines of the reduced interchain disulfide bonds; positions not given; drug-linker compound 51 (maleimide linker, exatecan derivative) coupled to cysteines of the reduced interchain disulfide bonds; positions not given; DAR 8.49 for the whole antibody

- Kd [4]: 0.262 nM
B7: TROP-2-ADC-23 (antibody, human IgG1, kappa, V domains shown)
VH: B3 VH
VL: B3 VL
modifications: drug-linker compound 70 coupled to cysteines of the reduced interchain disulfide bonds; positions not given; drug-linker compound 70 (maleimide linker, exatecan derivative) coupled to cysteines of the reduced interchain disulfide bonds; positions not given; DAR 6.42 for the whole antibody

- Kd [4]: 0.319 nM
B8: TROP-2-ADC-19 (antibody, human IgG1, kappa, V domains shown)
VH: B3 VH
VL: B3 VL
modifications: drug-linker compound 66 coupled to cysteines of the reduced interchain disulfide bonds; positions not given; drug-linker compound 66 (maleimide linker, exatecan derivative) coupled to cysteines of the reduced interchain disulfide bonds; positions not given; DAR 4.65 for the whole antibody
